{
  "source": "paper PMC8557155",
  "about": "(Annals of Nuclear Medicine, 2021)",
  "experiment": "clinical",
  "parameters": "species or system human (Japanese patients)",
  "details": "in vivo; for dose excreted: human, iv, 7.4 GBq, total radioactivity",
  "data": [
    {"smiles": "C[C@@H](O)[C@H](NC(=O)[C@@H]1CSSC[C@H](NC(=O)[C@@H](Cc2ccccc2)NC(=O)CN2CCN(CC(=O)O)CCN(CC(=O)O)CCN(CC(=O)O)CC2)C(=O)N[C@@H](Cc2ccc(O)cc2)C(=O)N[C@H](Cc2c[nH]c3ccccc23)C(=O)N[C@@H](CCCCN)C(=O)N[C@@H]([C@@H](C)O)C(=O)N1)C(=O)O", "note": "[177Lu-DOTATATE, ^177Lu-DOTA^0-Tyr^3-octreotate, metal not drawn]", "values": [
      {"measurement": "dose excreted", "setting": "Biological cumulative urine excretion of radioactivity at 24 h after administration", "result": 71.2, "unit": "%"},
      {"measurement": "dose excreted", "setting": "Biological cumulative urine excretion of radioactivity in the first 4 h", "result": 53.7, "unit": "%"},
      {"measurement": "dose excreted", "setting": "Cumulative urinary excretion of radioactivity within the initial 6 h", "result": 60.1, "unit": "%"},
      {"measurement": "Effective urinary radioactivity concentration, 0–1 h", "result": "4.7 ± 1.9", "unit": "GBq/L"},
      {"measurement": "Effective urinary radioactivity concentration, 4–6 h", "result": "1.3 ± 1.1", "unit": "GBq/L"},
      {"measurement": "Effective urinary radioactivity concentration, 6–24 h", "result": "0.3 ± 0.1", "unit": "GBq/L"},
      {"measurement": "Effective urinary radioactivity concentration, 24–48 h", "result": "0.07 ± 0.03", "unit": "GBq/L"}
    ]}
  ]
}
